The record followed here is patent US20050043235A1 (LICENTIA, published 2005).

Assay [1] concerns the target T1, VEGFR-1-Ig (UniProt P17948 27-553).
T1 construct: not shown: Ig part of the fusion, not described
Description: precipitation of 35S-labelled protein with VEGFR-1-Ig, SDS-PAGE (FIG. 5B).

Assay [2] concerns the target T2, neuropilin-1-Ig (UniProt O14786 22-856).
T2 construct: also called NP1; NP-1; not shown: Ig part of the fusion, not described
T2 sequence (looked up): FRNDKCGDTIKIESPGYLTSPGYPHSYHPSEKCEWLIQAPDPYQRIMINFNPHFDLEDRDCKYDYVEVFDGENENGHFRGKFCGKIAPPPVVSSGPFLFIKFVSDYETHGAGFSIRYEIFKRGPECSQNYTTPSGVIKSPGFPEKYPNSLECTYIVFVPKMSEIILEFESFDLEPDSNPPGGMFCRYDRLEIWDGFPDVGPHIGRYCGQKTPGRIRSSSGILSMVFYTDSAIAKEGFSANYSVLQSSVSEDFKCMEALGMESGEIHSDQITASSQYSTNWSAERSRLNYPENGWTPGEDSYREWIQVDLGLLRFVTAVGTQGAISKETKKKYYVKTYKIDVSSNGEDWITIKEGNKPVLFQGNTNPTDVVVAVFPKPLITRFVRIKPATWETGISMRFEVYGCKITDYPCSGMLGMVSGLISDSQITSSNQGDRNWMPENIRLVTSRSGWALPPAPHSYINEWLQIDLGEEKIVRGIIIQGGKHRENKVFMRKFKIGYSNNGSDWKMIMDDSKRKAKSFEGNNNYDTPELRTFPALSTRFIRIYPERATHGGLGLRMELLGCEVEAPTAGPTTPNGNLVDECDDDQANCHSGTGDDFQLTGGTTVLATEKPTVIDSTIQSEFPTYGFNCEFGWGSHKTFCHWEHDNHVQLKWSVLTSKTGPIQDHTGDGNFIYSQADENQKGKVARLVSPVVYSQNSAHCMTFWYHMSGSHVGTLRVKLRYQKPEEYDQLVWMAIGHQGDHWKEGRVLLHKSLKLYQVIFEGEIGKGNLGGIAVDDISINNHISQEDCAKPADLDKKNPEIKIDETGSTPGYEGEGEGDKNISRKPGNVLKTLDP
Kind of assay: precipitation of 35S-labelled protein with neuropilin-1-Ig, SDS-PAGE (FIG. 5A).

T1 sequence (P17948 27-553): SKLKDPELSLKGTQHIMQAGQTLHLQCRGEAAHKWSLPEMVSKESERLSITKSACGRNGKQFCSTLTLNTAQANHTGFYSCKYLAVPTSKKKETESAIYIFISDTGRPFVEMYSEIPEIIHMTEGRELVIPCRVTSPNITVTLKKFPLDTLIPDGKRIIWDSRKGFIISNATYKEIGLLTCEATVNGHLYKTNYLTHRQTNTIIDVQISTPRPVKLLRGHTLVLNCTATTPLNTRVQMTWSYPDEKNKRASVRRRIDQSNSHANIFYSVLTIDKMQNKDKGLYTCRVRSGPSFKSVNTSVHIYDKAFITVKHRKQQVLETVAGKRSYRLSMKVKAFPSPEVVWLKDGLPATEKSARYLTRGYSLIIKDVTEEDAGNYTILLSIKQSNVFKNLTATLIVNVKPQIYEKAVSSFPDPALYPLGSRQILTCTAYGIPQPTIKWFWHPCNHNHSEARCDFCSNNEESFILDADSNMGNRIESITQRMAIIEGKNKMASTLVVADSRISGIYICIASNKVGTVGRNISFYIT

B1: CA89, chimeric protein of the VEGF homology domain of VEGF-C and VEGF exon 6-8 encoded sequences (ligand)
chain: TEETIKFAAAHYNTEILKSIDNEWRKTQCMPREVCIDVGKEFGVATNTFFKPPCVSVYRCGGCCNSEGLQCMNTSTSYLSKTLFEITVPLSQGPKPVTISFANHTSCRCMSKLDVYRQVHSIIRRKSVRGKGKGQKRKRKKSRYKSWSVPCGPCSERRKHLFVQDPQTCKCSCKNTDSRCKARQLELNERTCRCDKPRR
notes: CA89 is released only with heparin in the medium; also called pEBS7/CA89; pREP7/CA89
Consider B1, for which the binding result in assay [1] is recorded as “no binding”.

B2: VEGF-CΔNΔC (ligand)
chain: TEETIKFAAAHYNTEILKSIDNEWRKTQCMPREVCIDVGKEFGVATNTFFKPPCVSVYRCGGCCNSEGLQCMNTSTSYLSKTLFEITVPLSQGPKPVTISFANHTSCRCMSKLDVYRQVHSIIRR
notes: also called N C; VEGF-C short form
For the molecule B2, the binding result in assay [2] and in assay [1] was “no binding” in each case.

B3: CA65, chimeric protein of the VEGF homology domain of VEGF-C and VEGF exon 7-8 encoded sequences (ligand)
chain: TEETIKFAAAHYNTEILKSIDNEWRKTQCMPREVCIDVGKEFGVATNTFFKPPCVSVYRCGGCCNSEGLQCMNTSTSYLSKTLFEITVPLSQGPKPVTISFANHTSCRCMSKLDVYRQVHSIIRRPCGPCSERRKHLFVQDPQTCKCSCKNTDSRCKARQLELNERTCRCDKPRR
notes: Exon 7-8 is used here; also called pEBS7/CA65; pREP7/CA65
As for B3, in assay [1], the binding result is reported as “no binding”.
